Test [1] addresses Recombinant HGF receptor (c-met)/fc chimera (UniProt P08581). Briefly: SPR; Biacore 2000, 25°C; c-Met/Fc chimera amine-coupled (EDC/NHS) to a CM5 chip (22113 or 22377 RU); reconstituted rHGF injected at the stated concentrations; response read after the end of the injection (dissociation phase).
Test [2] has the same target. Briefly: SPR; Biacore 2000, 25°C; c-Met/Fc chimera amine-coupled to a CM5 chip; medium conditioned by a healthy donor's blood (endogenous HGF, positive control) injected. For orientation: SPR reads the build-up and loss of mass on a sensor chip optically.
For test [3] the target is unchanged. The test is described as above. The source holds these as a separate data set.
Test [4] shares this target. Briefly: SPR; Biacore 2000, 25°C; c-Met/Fc chimera amine-coupled to a CM5 chip; supernatant of buffy coat (before or after haemolysis by freezing) or serum of one donor, diluted 1:20 in PBS pH 7.4.

The values that follow come from paper PMC2562019.

Where two headings read alike, the source gives them in different places.

UniProt P08581, sequence (P08581 25-932, change not shown): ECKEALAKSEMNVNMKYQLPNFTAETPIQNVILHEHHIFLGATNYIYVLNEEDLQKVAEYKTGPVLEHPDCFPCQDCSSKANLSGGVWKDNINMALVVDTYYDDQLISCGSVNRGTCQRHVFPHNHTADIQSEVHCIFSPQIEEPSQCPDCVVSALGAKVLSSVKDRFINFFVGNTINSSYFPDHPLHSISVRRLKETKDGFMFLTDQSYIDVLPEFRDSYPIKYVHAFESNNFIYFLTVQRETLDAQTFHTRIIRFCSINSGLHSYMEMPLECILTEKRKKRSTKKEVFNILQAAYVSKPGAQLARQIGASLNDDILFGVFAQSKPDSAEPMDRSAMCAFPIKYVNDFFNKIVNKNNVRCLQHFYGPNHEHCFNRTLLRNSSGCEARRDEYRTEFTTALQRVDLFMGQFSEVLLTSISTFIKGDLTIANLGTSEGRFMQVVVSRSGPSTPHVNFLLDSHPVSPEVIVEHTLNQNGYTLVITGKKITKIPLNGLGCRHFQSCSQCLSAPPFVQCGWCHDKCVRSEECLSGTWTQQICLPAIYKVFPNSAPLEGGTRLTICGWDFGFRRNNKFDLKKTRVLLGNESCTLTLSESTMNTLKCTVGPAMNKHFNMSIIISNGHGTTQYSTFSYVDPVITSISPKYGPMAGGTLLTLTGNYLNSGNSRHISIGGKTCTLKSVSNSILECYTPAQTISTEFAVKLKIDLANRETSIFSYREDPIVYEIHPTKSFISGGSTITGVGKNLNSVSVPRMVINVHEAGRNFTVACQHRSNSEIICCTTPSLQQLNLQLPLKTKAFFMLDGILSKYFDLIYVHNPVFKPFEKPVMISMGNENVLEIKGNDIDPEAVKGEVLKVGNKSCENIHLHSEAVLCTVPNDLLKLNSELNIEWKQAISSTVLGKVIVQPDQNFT

For the substance “Recombinant HGF, R&D carrier-free, lot GJ174034 (from UniProt P14210 32-728) (ligand)”, in test [1], the SPR response at 2.5 μg/ml after 15 h at room temperature was determined as 181 RU; the SPR response at 2.5 μg/ml after 15 h at −20°C and thawing was 94 RU; the SPR response at 2.5 μg/ml, freshly reconstituted is 194 RU.

Take “Recombinant human hepatocyte growth factor, lot GJ175031 (from UniProt P14210 32-728) (ligand)”: in test [1], the SPR response at 0.8 μg/ml came out at 120 RU, the SPR response at 4 μg/ml is 201 RU and the SPR response at 5 μg/ml was 265 RU.

On to “Endogenous HGF from human blood (ligand)”, for which, in test [2], the SPR response is 209 RU. Besides, the SPR response in test [3] was 403 RU. In test [4], the SPR response, buffy coat supernatant 1:20 came out at 247 RU; the SPR response, haemolysed buffy coat 1:20 turned out to be 163 RU; the SPR response, serum 1:20 was found to be 317 RU.
